B1: β-catenin•Ecyto complex (complex)
chain 1: MATQADLMELDMAMEPDRKAAVSHWQQQSYLDSGIHSGATTTAPSLSGKGNPEEEDVDTSQVLYEWEQGFSQSFTQEQVADIDGQYAMTRAQRVRAAMFPETLDEGMQIPSTQFDAAHPTNVQRLAEPSQMLKHAVVNLINYQDDAELATRAIPELTKLLNDEDQVVVNKAAVMVHQLSKKEASRHAIMRSPQMVSAIVRTMQNTNDVETARCTAGTLHNLSHHREGLLAIFKSGGIPALVKMLGSPVDSVLFYAITTLHNLLLHQEGAKMAVRLAGGLQKMVALLNKTNVKFLAITTDCLQILAYGNQESKLIILASGGPQALVNIMRTYTYEKLLWTTSRVLKVLSVCSSNKPAIVEAGGMQALGLHLTDPSQRLVQNCLWTLRNLSDAATKQEGMEGLLGTLVQLLGSDDINVVTCAAGILSNLTCNNYKNKMMVCQVGGIEALVRTVLRAGDREDITEPAICALRHLTSRHQEAEMAQNAVRLHYGLPVVVKLLHPPSHWPLIKATVGLIRNLALCPANHAPLREQGAIPRLVQLLVRAHQDTQRRTSMGGTQQQFVEGVRMEEIVEGCTGALHILARDVHNRIVIRGLNTIPLFVQLLYSPIENIQRVAAGVLCELAQDKEAAEAIEAEGATAPLTELLHSRNEGVATYAAAVLFRMSEDKPQDYKKRLSVELTSSLFRTEPMAWNETADLGLDIGAQGEALGYRQDDPSYRSFHSGGYGQDALGMDPMMEHEMGGHHPGADYPVDGLPDLGHAQDLMDGLPPGDSNQLAWFDTDL
chain 2: not shown
notes: β-catenin, murine; cytoplasmic domain of E-cadherin (Ecyto); also called E-cadherin•β-catenin complex; cadherin•β-catenin
B2: αE-catenin R551A (full-length) (natural protein, murine, UniProt P26231 1-906, looked up)
chain: MTAVHAGNINFKWDPKSLEIRTLAVERLLEPLVTQVTTLVNTNSKGPSNKKRGRSKKAHVLAASVEQATENFLEKGDKIAKESQFLKEELVVAVEDVRKQGDLMKSAAGEFADDPCSSVKRGNMVRAARALLSAVTRLLILADMADVYKLLVQLKVVEDGILKLRNAGNEQDLGIQYKALKPEVDKLNIMAAKRQQELKDVGNRDQMAAARGILQKNVPILYTASQACLQHPDVAAYKANRDLIYKQLQQAVTGISNAAQATASDDAAQHQGGSGGELAYALNNFDKQIIVDPLSFSEERFRPSLEERLESIISGAALMADSSCTRDDRRERIVAECNAVRQALQDLLSEYMGNAGRKERSDALNSAIDKMTKKTRDLRRQLRKAVMDHVSDSFLETNVPLLVLIEAAKNGNEKEVKEYAQVFREHANKLIEVANLACSISNNEEGVKLVRMSASQLEALCPQVINAALALAAKPQSKLAQENMDLFKEQWEKQVRVLTDAVDDITSIDDFLAVSENHILEDVNKCVIALQEKDVDGLDRTAGAIRGRAAAVIHVVTSEMDNYEPGVYTEKVLEATKLLSNTVMPRFTEQVEAAVEALSSDPAQPMDENEFIDASRLVYDGIRDIRKAVLMIRTPEELDDSDFETEDFDVRSRTSVQTEDDQLIAGQSARAIMAQLPQEQKAKIAEQVASFQEEKSKLDAEVSKWDDSGNDIIVLAKQMCMIMMEMTDFTRGKGPLKNTSDVISAAKKIAEAGSRMDKLGRTIADHCPDSACKQDLLAYLQRIALYCHQLNICSKVKAEVQNLGGELVVSGVDSAMSLIQAAKNLMNAVVQTVKASYVASTKYQKSQGMASLNLPAVSWKMKAPEKKPLVKREKQDETQTKIKRASQKKHVNPVQALSEFKAMDSI
notes: αE-catenin, murine, full length, with the point mutation R551A; Used in ITC (monomer in the cell); also called R551A αE-catenin; R551A mutant; source: E. coli BL21, purified (glutathione-agarose, TEV cleavage, Mono Q, SEC); monomer used; not shown: GST, N-terminal, cleaved

Columns and labels:
[1] = molecular target: the molecule itself; assay: crystal structure; αE-catenin 82–883 (C116S) dimer, 4.0 Å, crystals not dehydrated
[2] = molecular target: B2; assay: ITC; VP-ITC; αE-catenin monomer (or its complex) in the cell at 8–11 μM, binding partner injected at 70–155 μM; 20 mM HEPES pH 8.0, 150 mM NaCl, 1 mM DTT; 25 °C; details: both partners purified
β-catenin•Ecyto complex = molecular target: B1; assay: as above; details: both partners purified
[3] = molecular target: T1, αE-catenin R551A•β-catenin•Ecyto complex (murine | , UniProt P26231 1-906; Q02248 1-781; P09803 734-884, R551A); assay: as above; details: both partners purified
T1 construct: αE-catenin, murine, full length, with the point mutation R551A; β-catenin, murine; cytoplasmic domain of E-cadherin (Ecyto); Ternary complex placed in the ITC cell; also called ternary E-cadherin•β-catenin•αE-catenin R551A mutant complex; source: αE-catenin R551A: E. coli BL21, purified; not shown: GST, N-terminal, cleaved; copies: + +
T1 sequence (P09803 734-884, stated change not applied, one chain of several): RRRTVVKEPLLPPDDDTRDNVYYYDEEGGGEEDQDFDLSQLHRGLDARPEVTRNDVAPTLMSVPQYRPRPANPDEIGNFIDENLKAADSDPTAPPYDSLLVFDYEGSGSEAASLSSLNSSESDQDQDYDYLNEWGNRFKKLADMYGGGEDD

β-catenin•Ecyto complex, sequence (P09803 734-884, one chain of several): as the sequence (P09803 734-884, stated change not applied, one chain of several) above

Kd [2] | dH [2] | Binder | other results
– | – | αE-catenin 82–883 (C116S) (domain or fragment, murine, UniProt P26231 82-883, looked up, Crystallised as a homodimer; source: E. coli BL21, purified (glutathione-agarose, TEV cleavage, Mono Q, SEC); not shown: GST, N-terminal, cleaved) ESQFLKEELVVAVEDVRKQGDLMKSAAGEFADDPSSSVKRGNMVRAARALLSAVTRLLILADMADVYKLLVQLKVVEDGILKLRNAGNEQDLGIQYKALKPEVDKLNIMAAKRQQELKDVGNRDQMAAARGILQKNVPILYTASQACLQHPDVAAYKANRDLIYKQLQQAVTGISNAAQATASDDAAQHQGGSGGELAYALNNFDKQIIVDPLSFSEERFRPSLEERLESIISGAALMADSSCTRDDRRERIVAECNAVRQALQDLLSEYMGNAGRKERSDALNSAIDKMTKKTRDLRRQLRKAVMDHVSDSFLETNVPLLVLIEAAKNGNEKEVKEYAQVFREHANKLIEVANLACSISNNEEGVKLVRMSASQLEALCPQVINAALALAAKPQSKLAQENMDLFKEQWEKQVRVLTDAVDDITSIDDFLAVSENHILEDVNKCVIALQEKDVDGLDRTAGAIRGRAARVIHVVTSEMDNYEPGVYTEKVLEATKLLSNTVMPRFTEQVEAAVEALSSDPAQPMDENEFIDASRLVYDGIRDIRKAVLMIRTPEELDDSDFETEDFDVRSRTSVQTEDDQLIAGQSARAIMAQLPQEQKAKIAEQVASFQEEKSKLDAEVSKWDDSGNDIIVLAKQMCMIMMEMTDFTRGKGPLKNTSDVISAAKKIAEAGSRMDKLGRTIADHCPDSACKQDLLAYLQRIALYCHQLNICSKVKAEVQNLGGELVVSGVDSAMSLIQAAKNLMNAVVQTVKASYVASTKYQKSQGMASLNLPAVSWKMKAPEKKPLVKREKQDETQTKIK | binding result [1]: binds
78 nM | -33.3 kcal/mol | β-catenin (natural protein, murine, UniProt Q02248 1-781, looked up, β-catenin, murine; also called murine β-catenin) MATQADLMELDMAMEPDRKAAVSHWQQQSYLDSGIHSGATTTAPSLSGKGNPEEEDVDTSQVLYEWEQGFSQSFTQEQVADIDGQYAMTRAQRVRAAMFPETLDEGMQIPSTQFDAAHPTNVQRLAEPSQMLKHAVVNLINYQDDAELATRAIPELTKLLNDEDQVVVNKAAVMVHQLSKKEASRHAIMRSPQMVSAIVRTMQNTNDVETARCTAGTLHNLSHHREGLLAIFKSGGIPALVKMLGSPVDSVLFYAITTLHNLLLHQEGAKMAVRLAGGLQKMVALLNKTNVKFLAITTDCLQILAYGNQESKLIILASGGPQALVNIMRTYTYEKLLWTTSRVLKVLSVCSSNKPAIVEAGGMQALGLHLTDPSQRLVQNCLWTLRNLSDAATKQEGMEGLLGTLVQLLGSDDINVVTCAAGILSNLTCNNYKNKMMVCQVGGIEALVRTVLRAGDREDITEPAICALRHLTSRHQEAEMAQNAVRLHYGLPVVVKLLHPPSHWPLIKATVGLIRNLALCPANHAPLREQGAIPRLVQLLVRAHQDTQRRTSMGGTQQQFVEGVRMEEIVEGCTGALHILARDVHNRIVIRGLNTIPLFVQLLYSPIENIQRVAAGVLCELAQDKEAAEAIEAEGATAPLTELLHSRNEGVATYAAAVLFRMSEDKPQDYKKRLSVELTSSLFRTEPMAWNETADLGLDIGAQGEALGYRQDDPSYRSFHSGGYGQDALGMDPMMEHEMGGHHPGADYPVDGLPDLGHAQDLMDGLPPGDSNQLAWFDTDL | –
– | -32.3 kcal/mol | B1 | –
– | – | B2 | Kd (β-catenin•Ecyto complex): 14 nM
4.1 nM | 7.7 kcal/mol | vinculin D1 domain (residues 1–259) (domain or fragment, chicken, UniProt P12003 1-259, looked up, vinculin D1 domain, residues 1–259; the methods name chicken vinculin just before it) MPVFHTRTIESILEPVAQQISHLVIMHEEGEVDGKAIPDLTAPVSAVQAAVSNLVRVGKETVQTTEDQILKRDMPPAFIKVENACTKLVRAAQMLQADPYSVPARDYLIDGSRGILSGTSDLLLTFDEAEVRKIIRVCKGILEYLTVAEVVETMEDLVTYTKNLGPGMTKMAKMIDERQQELTHQEHRVMLVNSMNTVKELLPVLISAMKIFVTTKNTKSQGIEEALKNRNFTVEKMSAEINEIIRVLQLTSWDEDAWA | Kd [3]: 26 nM; dH [3]: 6.7 kcal/mol
